Data from paper PMC11374702, “Structural basis of the Meinwald rearrangement catalysed by styrene oxide isomerase” (Nature Chemistry, 2024).

Target: styrene oxide isomerase (SOI), Pseudomonas sp. VLB120, wild type (Pseudomonas sp. VLB120, UniProt O50216)
Test: cell-based or functional assay

catalytic efficiency (kcat/KM) for (S)-styrene oxide of the SOI–NB complex compared to the wild-type enzyme, coupled enzyme assay with EcALDH: 3 fold
B1: nanobody (NB) raised against SOI, used for structure determination (VHH)
VHH: QGQLVESGGGLVQAGGSLRLSCTGSGRAFVTPAVGWFRQAPGKEREFVGTINWSGSHTSYADPVKGRFTISRDNAKETVYLQMNNLKPEDADVYYCASRGVSGRYEYWGKGTPVTVSS
